From US9249224B2 (RINAT NEUROSCIENCE CORP., priority 2011, dated 2016)

System: cyno GHR
Assay: STAT5 phosphorylation in vitro assay, cyno GHR-transfected HEK293 cells
Format: cell-based, cynomolgus monkey
Settings: for fluorescent signal ave (phospho-STAT5): Table 8, cyno GHR-transfected cells
Protocol: This Example illustrates the effect of GHR antibodies in an in vitro STAT5 phosphorylation assay. In this Example, the ability of GHR antibodies to block GHR downstream signaling was tested in vitro using human GHR overexpressing cells and cyno GHR overexpressing cells.
GHR antagonist antibody Ab13 was tested for its ability to block STAT5 in an in vitro assay. HEK293 cells were transiently transfected with either DNA encoding full-length human GHR (SEQ ID NO: 140) or DNA encoding full-length cyno GHR (SEQ ID NO: 141). Cells were cultured in freestyle media for approximately 60 hours before testing. Cells were washed with DPBS (Dulbecco's Phosphate-Buffered Saline) and resuspended in Freestyle media, then counted using a hemocytometer. 1×10^6 cells were seeded per well in 6-well plates in 2 mls of Freestyle media. Cells were incubated for 2 hours at 37° C., then treated with 5, 50, or 500 nM Ab13 antibody in media. Cells were incubated at 37° C. with gentle mixing for 5 min with antibodies. 4.5 nM GH (Genotropin) was then added to all but control wells. Cells were incubated with GH at 37° C. with gentle mixing for 10 minutes.
Following incubation with GH, 2 ml of ice cold DPBS with 1× protease inhibitor cocktail (Roche) and 1 mM sodium orthovanadate (BioLabs) were added to each well and the plates were placed on ice. Cells were transferred to 5 ml tubes and spun down to create a cell pellet and the wash buffer was aspirated, leaving the cell pellet.
Reagents from Millipore™ MILLIPLEX® MAP Cell Signaling Buffer and Detection Kit (cat. #48-602) were used to lyse and treat the cell pellets. Millipore lysis buffer with 1× protease inhibitor cocktail and 1 mM sodium orthovanadate was added to each pellet at a volume of 200 ul/pellet. Cells were vortexed and incubated for 15 minutes at room temp with occasional vortexing. Millipore Assay buffer 2 with 1× protease inhibitor cocktail and 1 mM sodium orthovanadate was then added to the lysates at 300 ul/well.
Millipore™ MILLIPLEX® MAP Phospho STAT5N8 (Tyr694/699) MAPmate™ beads (Cat. #46-641) were resuspended in Assay Buffer 2 (from Millipore™ kit cat. #48-602) and loaded on a 96-well filter plate (provided in kit) at 25 ul/well, 25 ul/well of sample lysate was added to the wells and the beads and samples were incubated overnight at 4′C with shaking in the dark.
The liquid was then aspirated using a vacuum manifold and the remaining beads were washed using Millipore™ kit wash buffer. 25 ul Millipore™ kit detection antibody was added and incubated for 1 hour at room temperature with shaking in the dark. The detection antibody was vacuumed through and 25 ul kit streptavidin—Phycoerythrin was added and incubated in the dark for 15 min with shaking. 25 ul kit amplification buffer was then added and incubated for 15 min with shaking in the dark. The liquid was aspirated using a vacuum manifold, and the beads were resuspended in 150 ul kit assay buffer 2 and mixed on a shaker for 5 minutes before reading the plate.
The plate was read using a Luminex™ 200 instrument and fluorescent signal emitted from the samples was measured, The results of the STAT5 assay are shown in Tables 5 and 6. “Ave” indicates the average fluorescent signal, and “SEM” indicates the standard error of the mean.
Antibodies SS3 and SS1 (hIgG2Δa) were tested using a STAT5 phosphorylation assay. For the STAT5 assay, full-length human GHR overexpressing HEK293 cells or full-length cyno GHR-overexpressing HEK293 cells were cultured, counted by automated cell counter, and seeded in warm freestyle media in 12-well plates (5×10^5 cells/well in 1 ml media). Cells were allowed to settle for 3 hours at 37° C. then treated with 2.5, 5, 50, or 500 nM of SS1 or SS3 in media. […] Cells were incubated with GH at 37° C. with gentle mixing for 10 minutes.
Reagents from Millipore™ MILLIPLEX® MAP Cell Signaling Buffer and Detection Kit (cat, #48-602) were used to lyse and treat the cell pellets. […]

Sequence of cyno GHR (as listed by the source): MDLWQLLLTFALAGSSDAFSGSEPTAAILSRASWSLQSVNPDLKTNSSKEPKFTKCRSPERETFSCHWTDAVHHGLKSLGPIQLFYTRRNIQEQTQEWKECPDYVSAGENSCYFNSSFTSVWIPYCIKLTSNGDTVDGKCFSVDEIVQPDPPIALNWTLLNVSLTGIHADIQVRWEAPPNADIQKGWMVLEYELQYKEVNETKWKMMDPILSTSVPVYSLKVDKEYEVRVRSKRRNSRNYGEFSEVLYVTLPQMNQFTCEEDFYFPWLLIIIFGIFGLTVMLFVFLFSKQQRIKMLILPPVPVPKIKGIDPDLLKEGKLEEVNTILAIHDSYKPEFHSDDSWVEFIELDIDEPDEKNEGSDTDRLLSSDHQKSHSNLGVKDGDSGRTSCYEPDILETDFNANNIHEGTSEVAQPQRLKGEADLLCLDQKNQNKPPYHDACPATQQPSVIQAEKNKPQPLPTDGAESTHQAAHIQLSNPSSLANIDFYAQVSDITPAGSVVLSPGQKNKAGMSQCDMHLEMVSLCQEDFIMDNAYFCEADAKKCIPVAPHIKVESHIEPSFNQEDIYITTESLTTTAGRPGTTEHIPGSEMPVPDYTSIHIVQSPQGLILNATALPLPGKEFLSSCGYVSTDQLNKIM

B1: SS1: humanized GHR antagonist antibody; VL SEQ ID NO: 7, VH SEQ ID NO: 8; hIgG2Δa heavy chain SEQ ID NO: 134, light chain SEQ ID NO: 135 (antibody)
heavy: EVQLVESGGGLVKPGGSLRLSCAASGFTFSDAWMDWVRQAPGKGLEWVAEIRSKANYHATYYAESVKGRFTISRDDSKNTLYLQMNSLKTEDTAVYYCTLIRDYWGQGTLVTVSSASTKGPSVFPLAPCSRSTSESTAALGCLVKDYFPEPVTVSWNSGALTSGVHTFPAVLQSSGLYSLSSVVTVPSSNFGTQTYTCNVDHKPSNTKVDKTVERKCCVECPPCPAPPVAGPSVFLFPPKPKDTLMISRTPEVTCVVVDVSHEDPEVQFNWYVDGVEVHNAKTKPREEQFNSTFRVVSVLTVVHQDWLNGKEYKCKVSNKGLPSSIEKTISKTKGQPREPQVYTLPPSREEMTKNQVSLTCLVKGFYPSDIAVEWESNGQPENNYKTTPPMLDSDGSFFLYSKLTVDKSRWQQGNVFSCSVMHEALHNHYTQKSLSLSPGK
light: EIVLTQSPGTLSLSPGERATLSCTATSSVSSSYLNWYQQKPGQAPRLLIYSTSNLASGIPDRFSGSGSGTDFTLTISRLEPEDFAVYYCHQYHRSTPTFGGGTKVEIKRTVAAPSVFIFPPSDEQLKSGTASVVCLLNNFYPREAKVQWKVDNALQSGNSQESVTEQDSKDSTYSLSSTLTLSKADYEKHKVYACEVTHQGLSSPVTKSFNRGEC
modifications: Humanized and/or affinity matured antibody sequence
B1 was tested. Which “fluorescent signal ave (phospho-STAT5)” value (2.5 nM antibody + 4.5 nM GH) did it give?
The value was 496.

And the “fluorescent signal ave (phospho-STAT5)” value (5 nM antibody + 4.5 nM GH)?
Its value is 223.

And the “fluorescent signal ave (phospho-STAT5)” value (50 nM antibody + 4.5 nM GH)?
The value was 17.

What about the “fluorescent signal ave (phospho-STAT5)” value (500 nM antibody + 4.5 nM GH) of the same molecule?
The value was 12.

And the “effect on GH-stimulated STAT5 signaling” value (cells expressing cyno GHR, 4.5 nM GH)?
Its value is “blocked STAT5 signaling in a dose-dependent manner”.
